The assay addresses SARS-COV-2 D614G spike trimer (SARS-CoV-2, UniProt P0DTC2 14-1208). Description: SPR.

We go through two molecules from US20240343781A1 (published 2024).

B1: engineered monoclonal antibody 12-19 (antibody, V domains shown)
VH: QVQLVESGGGVVQPGRSLRLSCEASGFTFNTYDMHWARQAPGKGLEWVAVIWYDGSNKFYADSVKGRFTISRDNSKNTLYLQMNSLRAEDTAVYYCARDRTPVYDILTGYYWPPPRVDGMDVWGQGTTVTVSS
VL: DNVMTQTPFSLSVTPGQPASISCKSSQSLLHSDGKTYLYWYLQKPGQSPQLLIYEVSNRFSGVPERFSGSGSGTDFTLKISRVEAEDVGVYYCMQSIQLPFTFGQGTKLEIK
Molecule B1 returned a Kd of 9.35 nM.

B2: engineered monoclonal antibody 12-16 (antibody, V domains shown)
VH: QVQLVESGGGVVQPGRSLRLSCAASGFTFSNYGMHWVRQAPGKGLEWVAIISFDGSNRYYADSVKGRFTISRDNSKNTLYLQMDSLRAEDTAVYYCAKDLSFYYDISTGYYPQSYNSGTDVWGQGTTVTVSS
VL: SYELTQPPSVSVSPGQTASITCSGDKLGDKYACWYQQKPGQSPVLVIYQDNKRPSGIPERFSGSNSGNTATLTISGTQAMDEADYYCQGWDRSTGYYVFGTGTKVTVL
The molecule B2 had a Kd of 1.6 nM.
